Source: US20240067932A1, “METHODS AND COMPOSITIONS FOR GENERATING HEMOGENIC ENDOTHELIAL CELLS FROM PLURIPOTENT STEM CELLS” (Trailhead Biosystems Inc., priority 2022, published 2024)

What was measured:
[1] = system: early mesoderm progenitors; experiment: Factor criticality / dynamic profile analysis of gene expression on removal of a finalized effector; type: cell-based, human; parameters: expression level of GATA2 / expression level of TAL1 / expression level of CD44 / expression level of KDR / expression level of CD34 / expression level of CD31: unit not given here
[2] = system: early mesoderm progenitors; experiment: 8-factor HD-DoE experiments optimized for maximum GATA2 expression (qPCR, partial least squares models); type: cell-based, human; settings: fifth model, FIG. 6; factors VPA, SCF, BMP4, EFG, FLT3L, Arginine, Retinoic Acid, VEGF
[3] = model FIG. 11, named factor removed

B1: BMP4: BMP pathway agonist (protein, UniProt P12644 293-408, looked up)
Bone morphogenetic protein 4: SPKHHSQRARKKNKNCRRHSLYVDFSDVGWNDWIVAPPGYQAFYCHGDCPFPLADHLNSTNHAIVQTLVNSVNSSIPKACCVPTELSAISMLYLDEYDKVVLKNYQEMVVEGCGCR
expression level of GATA2 ([1]; model FIG. 11 (Retinoic Acid, BMP4, VEGF), factor present): 519
expression level of CD31 ([1]; model FIG. 11, factor present): 768
expression level of CD34 ([1]; model FIG. 11, factor present): 3971
expression level of FLI1 (Fill [sic]) ([1]; model FIG. 11, factor present): 3250
expression level of KDR ([1]; model FIG. 11, factor present): 17667
expression level of TAL1 ([1]; model FIG. 11, factor present): 490
expression level of CD31 [1, 3]: 682
expression level of CD34 [1, 3]: 3455
expression level of FLI1 (Fill [sic]) [1, 3]: 2213
expression level of GATA2 [1, 3]: 338
expression level of KDR [1, 3]: 10025
expression level of TAL1 [1, 3]: 422
factor contribution (maximum expression of GATA2) [2]: 31
